The nature of the data set: soluble on expression in E. coli; label from the status in PepcDB or PDB records.
Consider “MGQDQTKKQIEKGLQLYQSNQTEKALQVWTKVLEKSSDLMGRFRVLGCLVTAHSEMGRYKEMLKFAVVQIDTARELEDADFLLESYLNLARSNEKLCEFHKTISYCKTCLGLPGTRAGAQLGGQVSLSMGNAFLGLSVFQKALESFEKALRYAHNNDDAMLECRVCCSLGSFYAQVKDYEKALFFPCKAAELVNNYGKGWSLKYRAMSQYHMAVAYRLLGRLGSAMECCEESMKIALQHGDRPLQALCLLCFADIHRSRGDLELSQLKLHCLSESIYRSKGLQRELRAHVVRFHECVEETELYCGLCGESIGEKNSRLQALPCSHIFHLRCLQNNGTRSCPNCRRSSMKPGFV”, for which the “soluble on expression in E. coli” value is listed as “soluble”. Take “MGSDKIHHHHHHMTTFYSLKVARVEPETRDAVTITFAIPQALQAEYCFRPGQHLTLKARLGGEELRRCYSICRSRTPGEISVAVKAIDGGRFSRYAQQDIQQGMELEVMVPQGHFGYQPQAERQGEYLAIAAGSGITPMMAIISATLATEPQSRFTLIYGNRSSHSMMFRQALADLKDRYPQRLQVIHLFSQESMDSDLLQGRIDGDKLRQLADHLLDFSRFDEAFICGPAAMMDEAEATLRELGVAEKSIHLERFNTPGGNVKRVAGVQAEGRTVTIRQDGRDRLIALSAEDDSILDAALRQGADLPFACKGGVCATCKCKVLRGEVAMAANYSLEADELAAGYVLSCQSLPTSGDVVVDFDARGMA”: the “soluble on expression in E. coli” value is recorded as “not soluble”. As for “MDLLFGRRKTPEELLRQNQRALNRAMRELDRERQKLETQEKKIIADIKKMAKQGQMDAVRIMAKDLVRTRRYVRKFVLMRANIQAVSLKIQTLKSNNSMAQAMKGVTKAMGTMNRQLKLPQIQKIMMEFERQAEIMDMKEEMMNDAIDDAMGDEEDEEESDAVVSQVLDELGLSLTDELSNLPSTGGSLSVAAGGKKAEAAASALADADADLEERLKNLRRD”, the entry is “soluble”; as for “MMEMLVDQGTDASSSASTSTSSVSRFGADTFMNTPDDVMMNDDMEPIPRDRCNTWPMRRPQLEPPLNSSPIIHEQIPEEDADLYGSNEQCGQLGGASSNGSTAMLHTPDGSNSHQTSFPSDFRMSESPDDTVSGKKTTTRRNAWGNMSYAELITTAIMASPEKRLTLAQVYEWMVQNVPYFRDKGDSNSSAGWKNSIRHNLSLHSRFMRIQNEGAGKSSWWVINPDAKPGRNPRRTRERSNTIETTTKAQLEKSRRGAKKRIKERALMGSLHSTLNGNSIAGSIQTISHDLYDDDSMQGAFDNVPSSFRPRTQSNLSIPGSSSRVSPAIGSDIYDDLEFPSWVGESVPAIPSDIVDRTDQMRIDATTHIGGVQIKQESKPIKTEPIAPPPSYHELNSVRGSCAQNPLLRNPIVPSTNFKPMPLPGAYGNYQNGGITPINWLSTSNSSPLPGIQSCGIVAAQHTVASSSALPIDLENLTLPDQPLMDTMDVDALIRHELSQAGGQHIHFDL”, “not soluble”; as for “AFVVTDNCIKCKYTDCVEVCPVDCFYEGPNFLVIHPDECIDDALCEPECPAQAIFSEDEVPEDMQEFIQLNAELAEVWPNITEKKDPLPDAEDWDGVKGKLQHLER”, “soluble”.

In the case of “GSKEKLKEIKLLVCNIDGCLTNGHIYVSGDQKEIISYDVKDAIGISLLKKSGIEVRLISERACSKQTLSALKLDCKTEVSVSDKLATVDEWRKEMGLCWKEVAYLGNEVSDEECLKRVGLSAVPADACSGAQKAVGYICKCSGGRGAIREFAEHIFLLIEKVNNSCQK”, the “soluble on expression in E. coli” value is “soluble”. Under “MGSDKIHHHHHHMNTSGWGKYPEIEAQVLTPSSEKALQDLIGTGSYDGVTPRGLGRSYGDSSLGKLMVKTLRLNHMLSFELQSGLLHCQSGVSLAEILEVFVPRGWFLPVTPGTKLVTVGGAIASDIHGKNHHIDGCFCDHVDFLDLLTGSGEIIRCSPHEQAQLFHATCGGMGLTGIILSAAIRLTPIKSAYIDQVTFKSANLGESFELFEKQAEQPYSVAWIDCISSGDKLGRSLLMTGKHAQHGALAAHHNPGLSVPLDLPSFILNPYSIKAFNTLYYHKARQRETHATVHYDPFFYPLDGIGHWNRMYGKNGFTQYQFVIPKEAGLQAMDLILRTIVNSKKGSFLAVLKAFGKENRNLLSFPMEGYTLALDFKIEPDLFPLLDRLDAMVLDHGGRLYLTKDARMNAETFRKCYPKWEQFQNIRQQYGARHTFLSMQSQRLGLD” stands “not soluble”; under “MLTTTTNDILDQLRPLTVTKRGGAQTKFHPYKIDFVLRRLLATDDEVRVVKQALVAQYQDADNIDTRELRSTMMQILNAQGLTAAAKAYQDYFEAEQQRFAAATN”, “not soluble”. Turning to “MGSDKIHHHHHHMKKLFMSEYLNYVFQKKVWIVENIYMIKIMQLYYSSYNKKFISHTFFTDAIKNSSFPIFLNYVNNLNDKILYHSQVHGVKHILNVTFFSFLIACNENMSANDMGILLETALYHDIGRDDDMEDSDHGHRGAKKILMHISDNKMDMIIPAVIHAHSLLDEEAYQIFRQYNIEKSQYARYSKILSIIKDADALDRFRLRPNSLNPEYFRIDFSKILISLACVLSKVEWHE”, the “soluble on expression in E. coli” value was “not soluble”. As to “MSLNISFIASNTLHELAAFLEKLNNIREHHVGFCGEKGSEIKATLERDFSDIGVSKSFIVGYDGMEIKGAVGLDVDTKEESAEVWGPFVDEDDPEMWLDTATILWQQLIDSLTVPVSTFQFFINQHNVNAKKFILKLNGMEKGDHDILTCDRTQFYPPLNHDVRLFTNNHTQSFKKLHDSLFPQTYYDAEEILKKINEPTNKLLIIEKEQIVIGYAYVEVEPEHGEGQIEYIGIAPDYRRQGLATQLLTNALHVLFSYPTVEDITLCVSKQNTKAIRLYQAAGFKKERQLTYFELNVDGLDNRRGRGEGHHHHHH”, the “soluble on expression in E. coli” value is on record as “soluble”. As for “MTSYKPEYLIPNLLDLVAEGEGLRIEFKRLIHSAPKIARSITAFANTSGGVILIGVDDDRRIVGIQSEKEALQVIDEAMRFHIEPKPRIEVHFEEFKRRMVLLVDIPKSPERPHFHIEPLIRRDTGKHGVERRVFIRDGSHNKAASDDRIELMLSSREPLKVAFTGRERCLLDWLNEHDRITAEEFADSAGIPMKEARRILVSLVRAGALRLDTANGDNSYTLAHRLEHHHHHH”, the entry is “soluble”. Under “MVDGKHRMVYNITRFSCPTFSLSASAAAVAGRLTPAVPQNTLSRKSCYGAATSAPSSSYNVMYQQQEDTGIDAFAQFGQQSQQYHPSPELSEQINASKCSPYLTEILVGCEQLIAEGEEDSPTWISAIRQRFEDPQMDEVSKKIGVKLIIEMAFTMEPNQFRTADPQNTFSNLLKTLSYEVKDFLRVFIVPTLGEYHEGRKQLENDSRVYMAVFYAEVFVKLTLDNGSRFDKIGAALADQIEEILKFQPKDEYMKCLLRAFKVAGAELDTSEDLKLRADHILTIMGGYAKGSPLLGDSVKAQIFSLIECRTRGWDRAAARGPVRSSAGAGGGGGCVADRGEHDSSFDDSTDNDLTEEERQFLESHLEQVESRRGAEEDYDEQEMMKEFGKFVKEELQQAELKSTSEMLQKLEIEKDTAGAATETDETTPKTEEK” stands “not soluble”; under “MASAIWYYTVLVAESVLGIVGLRLYEEPAYTVLDRPSDTIEIRRYAPRVAAEVDLERRGNADGQAFTLLFNYIAGANRGGSGTSERVAMTVPVDVARPAKIAMTAPVETATQDRMTRMRFFLPATFTADTAPKPSDERVQIVTVPEQTIATLRFSGTGRDLREREQQLIAALANTPWQPVGAPYGLFYDAPFTLPFVRRNEAAVEVAKRLEHHHHHH”, “not soluble”; under “MNTYVAEIGEIVRSQRRDEEYIEDITERLSRVSKELLGQRTWIRWFPYLKSIASTLYYTSTVVLGNQTLGEEYVHLFESNGLERTVPSIPSRISFVLLHSAFPLISNYLIQKAESTLTHPSTESFLGIPIRKNQKARQSFLDVFFWLRTKLFPQLQRAHIALFYITGAYYSIARRFTGIRFLSASAHSDIPALKVYRFLGYITLIQLAVSIGISLYSFLEQEKFNNKLKKEKKENNGGSDRNLDENSLFHPTFQCSICLENKNPSALFCGHLFCWTCIQEHAVAATSSASTSSARCPQCRLEFQPRDPNNLRLLSTSTHPTIYFTGIQPTGIPHLGNFFGSIEPWTELQNSVDKNILMMLSVVDQHAISLGPLPANELRQNTHQMTASLIACGVDPNRTLLFRQSDVPQIAQISWILGSLQTTSKLARLPQYKEKKERFKKGDIPVGLLTYPLLQAADVLTFKATTVPVGEDQSQHLNLLGGLAYAFNKTYETEIFPIPKQLTRESHARIRSLREPEKKMSKSSGGPRSRIEITDSRSTIIEKCQKAQSDNAGKVTYDKENRLAVSNLLDLYSAVTKTQTSEIDFSNWTTLDLKMNLAEAVDKRLAPIRQKFEELQNTGEVDKVLTENGEKAREIAEKNLEEIRRTIGFL”, “not soluble”. As for “GSHMETVFTEKAPKPVGPYSQAIKVGNTLYVSGQIPIDPRTNEIVKGDIKVQTRQVLDNIKEIVKAAGFSLSDVAMAFVFLKDMNMFNDFNSVYAEYFKDKPPARVTVEVSRLPKDALIEIAVICSKG”, the entry is “soluble”. “SLQNNQPVEFNHAINYVNKIKNRFQGQPDIYKAFLEILHTYQKEQRNAKEAGGNYTPALTEQEVYAQVARLFKNQEDLLSEFGQFLPDA”: the “soluble on expression in E. coli” value was “soluble”. For the sequence “MRLEIAEKYMAEAYEYLKKGDTIQASGKAYKVAEEIVKAIKFLISKLIGQDVGVISPYRTQVRKLDQELANYKPYVEVNTVDAFQGREKDVIIFSVTATNGLRFVTNRRRLNVAFTRPRYKLIVLGNENSIMSCQMTIC”, the “soluble on expression in E. coli” value is on record as “soluble”. Under “MSVAEFDADVIVDARDCIMGRVASQVAEQALDGETVAVVNAERAVITGREEQIVEKYEKRVDIGNDNGYFYPKRPDGIFKRTIRGMLPHKKQRGREAFESVRVYLGNPYDEDGEVLDGTSLDRLSNIKFVTLGEISETLGANKTW” stands “soluble”; under “MSLYRIDFNKLRFLICDDNPHMRRILRTLLHSFGTREVYEAEDGATALEMYSHYSPDILITDWEMPIFDGLELAQMIRQPEAKGNPYAPIIMLTAHSEKRRVTLARDAGVTEFLAKPISSKGLYQRILNVVASPREGHHHHHH”, “not soluble”; under “MGSDKIHHHHHHMRNAHDILDNIVYDFANATGLGSVAVDLNGKEISPWYNFTSFCQQVRQIAAYHPYCQQCDRCGGFESTKAKQIQCYRCHAGLVDFSIPIFINGNLTGFVSCGQARVAENLPLPKIVENDKNLPTESKLIELYHEVPELSLMKIKSAAQLLNLIIENYLSKEYNLRIVKNVSPVKNQKLETLGRHQATMEMILNHINQNFSDNLNLEQMASKANLSMFYFSRTFKELTGTGFTAYLINKRMTEAHCLLEQTNWSIEKIARSVGYNDVHYFSRLFKKTFNRSPSEFRNHSSGFSM”, “not soluble”. Under “MMEMITIKPGKITVQANPNMPKEVAELFRKQHYEIVGRHSGVKLCHWLKKSLTEGRFCYKQKFYGIHSHRCLQMTPVLAWCTHNCIFCWRPMENFLGTELPQPWDDPAFIVEESIKAQRKLLIGYKGNPKVDKKKFEEAWNPTHAAISLSGEPMLYPYMGDLVEEFHKRGFTTFIVTNGTIPERLEEMIKEDKLPTQLYVSITAPDIETYNSVNIPMIPDGWERILRFLELMRDLPTRTVVRLTLVKGENMHSPEKYAKLILKARPMFVEAKAYMFVGYSRNRLTINNMPSHQDIREFAEALVKHLPGYHIEDEYEPSRVVLIMRDDVDPQGTGVEGRFIKH” stands “soluble”; under “MGSDKIHHHHHHMQLEVMEHYGIIKYFRDADYFETEHQRRIFNQLKKVIPEGQLIALSGVVGSGKTTTLSRLQDLLAKEKKVIVAKSLSVEKTKTNLGTLITALFYDVSGDKDYRVPKLGEKRERELRDLIQDVKKPVVLLVDEAHDLHHRTLTGLKRLMEVIRDGGGKLSILLAGHPKLKNDLKGPTMEEVGYRTIVVSLDAMQGNLREYVYWLLDNCTDDKTKPTDVIEEQAIDYLVERLTTPLQIEQHLSLALEEGFNVGVKPITVDVLDLTLSRRINDIEPRLIRHGYSEKVLVDQFHYKPAELRKFFKGELDANRVKEITQDLREAGLPI”, “not soluble”.

Values taken from the DeepSol protein solubility set.
